# Experimental data published in US20110281938, “APTAMERS TO TISSUE FACTOR PATHWAY INHIBITOR AND THEIR USE AS BLEEDING DISORDER THERAPEUTICS” (Baxter Healthcare S.A., published 2011).
# Assays:
# Settings in all cases: tags: American Diagnostica 4500PC/4900PC, E. coli expressed
# [1] = target: T1, TFPI (tissue factor pathway inhibitor, full-length) (Homo sapiens, UniProt P10646 SEQ:1-276); experiment: competition; dot-blot; CAT criterion not met
# Method: (§1) The substituted ARC17480 molecules were assayed for binding and function. The assays used for this evaluation were the calibrated automated thrombogram (CAT) assay, a dot-blot binding-competition assay and a FXa activity assay. The results of these assays are summarized in Table 40 and depicted in FIG. 147. A mutation was considered tolerated for activity if it met the criteria of at least two of the three assays that were carried out. Mutations that are tolerated (“yes”) and not tolerated (“no”) are identified in Table 40. The experimental details and the criteria used for each assay are described in the following paragraphs. The molecules described in this example were first tested in the CAT assay and the dot-blot binding-competition assay. In most cases, molecules were only tested in the FXa assay if there was a discrepancy between the results in the CAT assay and the dot-blot binding-competition assay.
# (§2) Each molecule was evaluated for binding to tissue factor pathway inhibitor (TFPI) in a binding-competition assay. For these experiments, 10 nM human TFPI (American Diagnostica, Stamford, Conn., catalog #4900PC) was incubated with trace amounts of radiolabeled ARC17480 and 5000 nM, 1666.67 nM, 555.56 nM, 185.19 nM, 61.73 nM, 20.58 nM, 6.86 nM, 2.29 nM, 0.76 nM or 0.25 nM of unlabeled competitor aptamer. ARC17480 was included as a competitor in every experiment as a control. For each molecule, the percentage of radiolabeled ARC17480 bound at each competitor aptamer concentration was used for analysis. The percentage of radiolabeled ARC17480 bound was plotted as a function of aptamer concentration and fit to the equation y=(max/(1+x/IC₅₀))+int, where y=the percentage of radiolabeled ARC17480 bound, x=the concentration of aptamer, max=the maximum radiolabeled ARC17480 bound, and int=the y-intercept, to generate an IC₅₀ value for binding-competition. The IC₅₀ of each aptamer was compared to the IC₅₀ of ARC17480 that was evaluated in the same experiment. A mutation was considered tolerated in the binding-competition assay if the IC₅₀ of that molecule was not more than 5-fold greater than that of ARC17480 evaluated in the same experiment. Tolerated mutations are indicated in Table 40 as meeting the assay criteria (“yes”) or not meeting the assay criteria (“no”).
# [2] = target: T1, TFPI (tissue factor pathway inhibitor, …); experiment: competition; dot-blot; FXa assay criterion not met
# Method: Each molecule was evaluated for binding to tissue factor pathway inhibitor (TFPI) in a binding-competition assay. For these experiments, 10 nM human TFPI (American Diagnostica, Stamford, Conn., catalog #4500PC) was incubated with trace amounts of radiolabeled ARC17480 and 5000 nM, 1666.67 nM, 555.56 nM, 185.19 nM, 61.73 nM, 20.58 nM, 6.86 nM, 2.29 nM, 0.76 nM or 0.25 nM of unlabeled competitor aptamer. ARC17480 was included as a competitor in every experiment as a control. For each molecule, the percentage of radiolabeled ARC17480 bound at each competitor aptamer concentration was used for analysis. The percentage of radiolabeled ARC17480 bound was plotted as a function of aptamer concentration and fit to the equation y=(max/(1+x/IC₅₀))+int, where y=the percentage of radiolabeled ARC17480 bound, x=the concentration of aptamer, max=the maximum radiolabeled ARC17480 bound, and int=the y-intercept, to generate an IC₅₀ value for binding-competition. The IC₅₀ of each aptamer was compared to the IC₅₀ of ARC17480 that was evaluated in the same experiment. A substitution was considered tolerated in the binding-competition assay if the IC₅₀ of that molecule was not more than 5-fold greater than that of ARC17480 evaluated in the same experiment. Tolerated substitutions are indicated in Table 37 as meeting the assay criteria (“yes”) or not meeting the assay criteria (“no”).
# [3] = target: T1, TFPI (tissue factor pathway inhibitor, …); experiment: competition; meets binding-competition criterion; CAT and FXa no
# Method: as §1
# Each molecule was evaluated for binding to tissue factor pathway inhibitor (TFPI) in a binding-competition assay. For these experiments, 10 nM human TFPI (American Diagnostica, Stamford, Conn., catalog #4900PC) was incubated with trace amounts of radiolabeled ARC17480 and 5000 nM, 1666.67 nM, 555.56 nM, 185.19 nM, 61.73 nM, 20.58 nM, 6.86 nM, 2.29 nM, 0.76 nM or 0.25 nM of unlabeled competitor aptamer. ARC17480 was included as a competitor in every experiment as a control. For each molecule, the percentage of radiolabeled ARC17480 bound at each competitor aptamer concentration was used for analysis. […] The IC₅₀ of each aptamer was compared to the IC₅₀ of ARC17480 that was evaluated in the same experiment. A mutation was considered tolerated in the binding-competition assay if the IC₅₀ of that molecule was not more than 5-fold greater than that of ARC17480 evaluated in the same experiment. […]
# [4] = target: T1, TFPI (tissue factor pathway inhibitor, …); experiment: competition; dot-blot
# Method: as §1, §2
# [5] = target: T1, TFPI (tissue factor pathway inhibitor, …); experiment: competition; meets binding-competition criterion
# Method: as §1, §2
# [6] = target: T1, TFPI (tissue factor pathway inhibitor, …); experiment: competition; meets binding-competition criterion; CAT no
# Method: as §1
# Each molecule was evaluated for binding to tissue factor pathway inhibitor (TFPI) in a binding-competition assay. […] The IC₅₀ of each aptamer was compared to the IC₅₀ of ARC17480 that was evaluated in the same experiment. A mutation was considered tolerated in the binding-competition assay if the IC₅₀ of that molecule was not more than 5-fold greater than that of ARC17480 evaluated in the same experiment. […]
# T1 sequence (P10646 29-304): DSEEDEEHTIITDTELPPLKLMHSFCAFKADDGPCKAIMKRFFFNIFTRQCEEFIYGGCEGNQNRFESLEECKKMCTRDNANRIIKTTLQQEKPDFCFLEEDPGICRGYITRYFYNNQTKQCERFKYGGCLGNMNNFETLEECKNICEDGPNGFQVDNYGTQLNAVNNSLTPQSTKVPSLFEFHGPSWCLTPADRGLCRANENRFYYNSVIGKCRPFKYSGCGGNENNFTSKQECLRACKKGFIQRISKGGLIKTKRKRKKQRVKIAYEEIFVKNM
binder,measurement,setting,value
"GGAAUAUGCUUGGCUCGUUAGGUGCGUAUAUA (XNA, 2'-OMe except dC9, dC14, dC16, dC25; 3' idT) [ARC34870]",binding signal,[1],≤ 5 fold IC50 vs ARC17480
"GGAAUAUACUUGGCUCGUUAGGUGCGUAUAUA (XNA, 2'-OMe except dC9, dC14, dC25; 2'-OMe C16; 3' idT) [ARC18540]",binding signal,[2],≤ 5 fold IC50 vs ARC17480
"GGAAUAUACUUGGTUCGUUAGGUGCGUAUAUA (mixed, 2'-OMe A/G/U, dT14, 2'-deoxy C, 3' idT) [ARC33162]",binding signal,[3],≤ 5 fold IC50 of ARC17480
"GGAAUGUACUUGGCUCGUUAGGUGCGUAUAUA (XNA, 2'-OMe except dC9, dC14, dC16, dC25; 3' idT) [ARC34866]",binding signal,[4],≤ 5 fold IC50 vs ARC17480
"GGAACAUACUUGGCUCGUUAGGUGCGUAUAUA (mixed, 2'-OMe A/G/U and mC5, other C 2'-deoxy, 3' idT) [ARC33153]",binding signal,[5],≤ 5 fold IC50 of ARC17480
"GGAAUAUACCUGGCUCGUUAGGUGCGUAUAUA (mixed, 2'-OMe A/G/U and mC10, other C 2'-deoxy, 3' idT) [ARC33158]",binding signal,[5],≤ 5 fold IC50 of ARC17480
"GGAAUAUCCUUGGCUCGUUAGGUGCGUAUAUA (XNA, 2'-OMe except dC9, dC14, dC16, dC25; 3' idT) [ARC34871]",binding signal,[1],> 5 fold IC50 vs ARC17480
"GGAAUUUACUUGGCUCGUUAGGUGCGUAUAUA (mixed, 2'-OMe A/G/U, 2'-deoxy C, 3' idT) [ARC33154]",binding signal,[6],≤ 5 fold IC50 of ARC17480
"GGGAUAUACUUGGCUCGUUAGGUGCGUAUAUA (XNA, 2'-OMe except dC9, dC14, dC16, dC25; 3' idT) [ARC34860]",binding signal,[4],≤ 5 fold IC50 vs ARC17480
"GGAAUAUACUUGGCUCGUUAGGUGCGUACAUA (mixed, 2'-OMe A/G/U and mC29, other C 2'-deoxy, 3' idT) [ARC33177]",binding signal,[6],≤ 5 fold IC50 of ARC17480
"GGAAAAUACUUGGCUCGUUAGGUGCGUAUAUA (XNA, 2'-OMe except dC9, dC14, dC16, dC25; 3' idT) [ARC34864]",binding signal,[1],≤ 5 fold IC50 vs ARC17480
"GAAAUAUACUUGGCUCGUUAGGUGCGUAUAUA (XNA, 2'-OMe except dC9, dC14, dC16, dC25; 3' idT) [ARC34858]",binding signal,[4],≤ 5 fold IC50 vs ARC17480
"GGAAUAUACUUGGCUCGUUAGGUGCGUAUAUA (XNA, 2'-OMe except dC9, dC14, dC16; 2'-OMe C25; 3' idT) [ARC18541]",binding signal,[2],≤ 5 fold IC50 vs ARC17480
"GGAAUAUACUUGGCUCGUUAGGUGCGUAUACA (mixed, 2'-OMe A/G/U and mC31, other C 2'-deoxy, 3' idT) [ARC33179]",binding signal,[5],≤ 5 fold IC50 of ARC17480
"GGAGUAUACUUGGCUCGUUAGGUGCGUAUAUA (XNA, 2'-OMe except dC9, dC14, dC16, dC25; 3' idT) [ARC34862]",binding signal,[4],≤ 5 fold IC50 vs ARC17480
"GGAAUCUACUUGGCUCGUUAGGUGCGUAUAUA (XNA, 2'-OMe except dC9, dC14, dC16, dC25; 3' idT) [ARC34867]",binding signal,[1],≤ 5 fold IC50 vs ARC17480
"GGUAUAUACUUGGCUCGUUAGGUGCGUAUAUA (mixed, 2'-OMe A/G/U, 2'-deoxy C, 3' idT) [ARC33151]",binding signal,[5],≤ 5 fold IC50 of ARC17480
